Usually stoichiometry N stands for the number of molecules, sites or subunits per partner or assembly.

Consider three proteins from publication PMC8760513, “Mechanistic details of the actinobacterial lyase-catalyzed degradation reaction of 2-hydroxyisobutyryl-CoA” (The Journal of Biological Chemistry, 2021).

The data set deals with the molecule itself. Put plainly: crystal structure; sitting drop co-crystals of 10 mg/ml protein with 1 mM 2-HIB-CoA, 5 mM ADP, 5 mM MgCl2 and 5 mM dzThDP (or ThDP for the intermediate/product state); tetramer described as a dimer of dimers.

B1: 2-hydroxyacyl-CoA lyase from Actinomycetospora chiangmaiensis (WT AcHACL) (enzyme)
chain: MADRQDAERSGAGPARQSVPVASLVAEFLQEHGVDRVFGLQGGHIQPIWDQLARRGVRIVDVRDEGSAVHMAHAHTELTGQTAVAMVTAGPGVTNTVTAVANASVSRIPLLVIGGCPPIPQSNMGPLQDIPHTAILEPITRLARTLRSADQVLREFDEAWARASGDRGEPGPVYLEIPTDVLRRDVPPALQMREHLRAKPKRRPQPHPDDVAAVADLIRAAEKPAIISGRGARTTDGTDLVRLLDASGAAYLDTQESRGLVPDSHPAAVGSARSAVMRDTDLLITVGRQLDYQLGMGSPAVFPHAKVVRIADTASELIDNRRGEVEILAEPGAALAAIADALKDHTPDTSWRDELKAKHRKRAEDYRQALHSTENGADGHIHPNRIFGALDALDGDVLDLGETIMIADGGDLLSFGRLGITKARRYLDAGAFGCLGVATPFAIGAALAYPDRPVVAVTGDGAFGITATEIDTAVRHDAKIVVIVSNNRAWNIERYDQAENYGLVVGTDLADSDYAGVARAFGAHGERVTDPAELEGAIRRALANAPALVDVVTTQDAASPDSGKGLGFVPDYQALTPWNDAEVARRQEGI
notes: 2-hydroxyacyl-CoA lyase (AcHACL) of Actinomycetospora chiangmaiensis DSM 45062; residues up to 590 are named in the text; Crystallised with 2-HIB-CoA and dzThDP (7PT1) or ThDP (7PT4); also called actinobacterial 2-hydroxyacyl-CoA lyase
Take B1: the “stoichiometry N” value came to 4.

B2: AcHACL E493A mutant (enzyme)
chain: MADRQDAERSGAGPARQSVPVASLVAEFLQEHGVDRVFGLQGGHIQPIWDQLARRGVRIVDVRDEGSAVHMAHAHTELTGQTAVAMVTAGPGVTNTVTAVANASVSRIPLLVIGGCPPIPQSNMGPLQDIPHTAILEPITRLARTLRSADQVLREFDEAWARASGDRGEPGPVYLEIPTDVLRRDVPPALQMREHLRAKPKRRPQPHPDDVAAVADLIRAAEKPAIISGRGARTTDGTDLVRLLDASGAAYLDTQESRGLVPDSHPAAVGSARSAVMRDTDLLITVGRQLDYQLGMGSPAVFPHAKVVRIADTASELIDNRRGEVEILAEPGAALAAIADALKDHTPDTSWRDELKAKHRKRAEDYRQALHSTENGADGHIHPNRIFGALDALDGDVLDLGETIMIADGGDLLSFGRLGITKARRYLDAGAFGCLGVATPFAIGAALAYPDRPVVAVTGDGAFGITATEIDTAVRHDAKIVVIVSNNRAWNIARYDQAENYGLVVGTDLADSDYAGVARAFGAHGERVTDPAELEGAIRRALANAPALVDVVTTQDAASPDSGKGLGFVPDYQALTPWNDAEVARRQEGI
notes: 2-hydroxyacyl-CoA lyase (AcHACL) of Actinomycetospora chiangmaiensis DSM 45062 with E493A, made by site-directed mutation of the WT construct in pASG-IBA43; it says that the overall structure is identical to the WT (tetramer); also called alanine mutant; source: same protocol as WT)
In the case of B2, the binding result is on record as “binds”.

B3: AcHACL E493Q mutant (enzyme)
chain: MADRQDAERSGAGPARQSVPVASLVAEFLQEHGVDRVFGLQGGHIQPIWDQLARRGVRIVDVRDEGSAVHMAHAHTELTGQTAVAMVTAGPGVTNTVTAVANASVSRIPLLVIGGCPPIPQSNMGPLQDIPHTAILEPITRLARTLRSADQVLREFDEAWARASGDRGEPGPVYLEIPTDVLRRDVPPALQMREHLRAKPKRRPQPHPDDVAAVADLIRAAEKPAIISGRGARTTDGTDLVRLLDASGAAYLDTQESRGLVPDSHPAAVGSARSAVMRDTDLLITVGRQLDYQLGMGSPAVFPHAKVVRIADTASELIDNRRGEVEILAEPGAALAAIADALKDHTPDTSWRDELKAKHRKRAEDYRQALHSTENGADGHIHPNRIFGALDALDGDVLDLGETIMIADGGDLLSFGRLGITKARRYLDAGAFGCLGVATPFAIGAALAYPDRPVVAVTGDGAFGITATEIDTAVRHDAKIVVIVSNNRAWNIQRYDQAENYGLVVGTDLADSDYAGVARAFGAHGERVTDPAELEGAIRRALANAPALVDVVTTQDAASPDSGKGLGFVPDYQALTPWNDAEVARRQEGI
notes: 2-hydroxyacyl-CoA lyase (AcHACL) of Actinomycetospora chiangmaiensis DSM 45062 with E493Q, made by site-directed mutation of the WT construct in pASG-IBA43; it says that the overall structure is identical to the WT (tetramer); source: same protocol as WT)
B3: the binding result was “binds”.
